Substitutions are numbered along the chain they refer to.

T1: Lrp6E3E4 domain (Homo sapiens, UniProt O75581)
T1 sequence (O75581 631-1244 limits assumed): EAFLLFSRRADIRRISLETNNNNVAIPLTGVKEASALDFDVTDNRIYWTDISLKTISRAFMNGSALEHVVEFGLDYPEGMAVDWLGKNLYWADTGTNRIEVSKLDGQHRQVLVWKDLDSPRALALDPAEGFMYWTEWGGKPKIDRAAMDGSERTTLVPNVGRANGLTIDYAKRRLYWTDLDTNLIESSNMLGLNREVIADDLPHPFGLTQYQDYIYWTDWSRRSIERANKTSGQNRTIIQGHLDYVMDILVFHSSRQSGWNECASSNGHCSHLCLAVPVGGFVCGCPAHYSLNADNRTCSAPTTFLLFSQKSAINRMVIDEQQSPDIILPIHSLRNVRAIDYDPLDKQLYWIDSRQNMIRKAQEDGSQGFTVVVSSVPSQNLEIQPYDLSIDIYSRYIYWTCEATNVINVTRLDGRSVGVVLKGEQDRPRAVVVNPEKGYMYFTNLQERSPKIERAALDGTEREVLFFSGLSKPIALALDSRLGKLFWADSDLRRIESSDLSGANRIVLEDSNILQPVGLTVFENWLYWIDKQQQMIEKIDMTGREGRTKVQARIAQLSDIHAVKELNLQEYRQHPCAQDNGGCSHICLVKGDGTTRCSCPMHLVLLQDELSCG

B1: VHH26 (parental): parental camelid LRP6 binding VHH, SEQ ID NO: 25 (protein)
VHH: DVQLVESGGGLVQAGGSLRLACAGSGRIFAIYDIAWYRHPPGNQRELVAMIRPVVTEIDYADSVKGRFTISRNNAMKTVYLQMNNLKPEDTAVYYCNAKRPWGSRDEYWGQGTQVTVSS
modifications: VHH26 (parental)
B2: VHH26-H4: humanized variant of LRP6 binding VHH26, SEQ ID NO: 22 [VHH26-H4] (protein)
VHH: EVQLVESGGGLVQPGGSLRLSCAGSGRIFAIYDIAWYRQAPGKGRELVAMIRPVVTEIDYADSVKGRFTISRDNSKNTVYLQMNSLRAEDTAVYYCNAKRPWGSRDEYWGQGTTVTVSS
modifications: VHH26_H4
B3: VHH26-H6: humanized variant of LRP6 binding VHH26, SEQ ID NO: 24 [VHH26-H6] (protein)
VHH: B2 VHH with N77K
modifications: VHH26_H6
B4: VHH26-H3: humanized variant of LRP6 binding VHH26, SEQ ID NO: 21 (protein)
VHH: B2 VHH with L47W
modifications: VHH26_H3
B5: VHH26-H5: humanized variant of LRP6 binding VHH26, SEQ ID NO: 23 (protein)
VHH: B2 VHH with L47W, N77K
modifications: VHH26_H5
B6: VHH26-H2: humanized variant of LRP6 binding VHH26, SEQ ID NO: 20 (protein)
VHH: B2 VHH with R45L, L47W
modifications: VHH26_H2
B7: VHH26-H1: humanized variant of LRP6 binding VHH26, SEQ ID NO: 19 (protein)
VHH: B2 VHH with V5L, G24A, Y37V, R45L, L47W, A49S, V79L, N97A, A98K
modifications: VHH26_H1
B8: RSPO2: R-spondin 2, ligand that amplifies WNT signals (protein, UniProt Q6UXX9 22-243, looked up)
R-spondin-2: QGNRWRRSKRASYVSNPICKGCLSCSKDNGCSRCQQKLFFFLRREGMRQYGECLHSCPSGYYGHRAPDMNRCARCRIENCDSCFSKDFCTKCKVGFYLHRGRCFDECPDGFAPLEETMECVEGCEVGHWSEWGTCSRNNRTCGFKWGLETRTRQIVKKPVKDTILCPTIAESRRCKMTMRHCPGGKRTPKAKEKRNKKKKRKLIERAQEQHSVFLATDRANQ

One data set has as its target T1, Lrp6E3E4 domain. The experiment in a line: Bio-layer interferometry (Octet) binding kinetics of VHH26 constructs. To be noted: SEC fraction C1/G1 (parental D3); 1:1 binding model. As for the experimental part:
These six humanized VHH26 variants H1 to H6 and the parental VHH26 were transiently expressed in Expi293 cells (at 80 mL scale) with a C-terminal hexa-histidine tag. Proteins were purified using His-Complete resin (Roche, USA) following standard procedures. Expression levels and homogeneity of VHH26 and its humanized variants were analyzed by SDS-PAGE and SEC (size-exclusion chromatography). […] Biotinylated LRP6E3E4 diluted to 50 nM in the running buffer (PBS, 0.05% Tween-20, 0.5% BSA, pH 7.2) were captured to the SA biosensor followed by dipping into wells containing the indicated VHH26 proteins at different concentrations in running buffer or into a well with only running buffer as a reference channel. KD for each binder was calculated by Octet System software, based on fitting to a 1:1 binding model. Kinetics values (Kon, Koff, KD) from each experiment was calculated from seven technical replicates of different concentrations of the molecule tested with Octet Data Analysis 9.0 (PALL ForteBio, Fremont, CA).
Central fractions of each of these peaks were examined by Octect-BLI for their ability interact with Lrp6. Kinetics parameters such as kon, koff, and KD for interaction between VHH26 constructs and Lrp6E3E4 domain are listed in Table 2. Analyses of these parameters reveal that the binding affinity towards Lrp6 is least affected in the case of the VHH26-H5 humanized variant compared to the parent VHH26 (Table 2; FIG. 3B).
For orientation: BLI is a label-free optical method that tracks binding on a fibre tip over time.
For B1, the koff stood at 1.77E−02 and the kon is 8.10E+05.
On to B2, for which the koff turned out to be 9.51E−02 and the kon amounted to 1.44E+05.
In the same order, the values of B3 are 3.11E−02 and 4.52E+04.
In the case of B4, the koff amounted to 5.22E−02 and the kon came to 1.63E+04.
As to B5, the koff is listed as 1.77E−02 and the kon amounted to 4.28E+05.
With B6, the koff was found to be 6.53E−02 and the kon was found to be 1.48E+05.

The data set is the same for the next values; noted with them: SEC fraction C3/G3 (parental D3); 1:1 binding model.
As for B1, the koff was determined as 1.82E−02 and the kon was determined as 1.05E+06.
The corresponding values for B2 are 5.56E−03 and 2.90E+04.
In the same order, the values of B3 are 8.36E−03 and 1.72E+04.
In the same order, the values of B4 are 7.75E−03 and 1.84E+04.
As to B5, the koff turned out to be 1.47E−02 and the kon amounted to 1.35E+05.
As for B6, the koff is listed as 6.84E−02 and the kon amounted to 2.44E+05.
Regarding B7, the koff turned out to be 3.98E−03 and the kon amounted to 1.42E+04.

The test system of a further data set is DSS induced acute colitis in C57BL6/J mice. The experiment in a line: DSS induced acute colitis model. The data set is classed as in vivo, mouse. To be noted: IP twice weekly or daily starting on day 4 of DSS. As for the experimental part:
7- to 8-week-old female C57BL6/J mice were fed with 4% (wt/vol) Dextran Sulfate Sodium (DSS, MP Biomedicals, molecular weight 36-50 kDa, Ref #160110) in drinking water from day 1 to day 7 to induce colitis and were switched to 1% DSS from day 8. […] Animals were terminated on day 10, allowing a 6-day course of protein treatment, and the colon was harvested for histology and RT-qPCR. […] The disease activity index (DAI) was calculated based on the average score of weight loss, stool consistency and the degree of intestinal bleeding (Wirtz Stefan et al., 2017). Scoring system by grading was on a scale of 0 to 4 using the following parameters: loss of weight (0, 0-1%; 1, 1-6%; 2, 6-12%; 3, 12-18%; 4, >18%), stool consistency (0, normal; 1, soft but still formed; 2, soft; 3, very soft, wet; 4, watery diarrhea) and intestine bleeding (0-1, negative hemoccult; 2, positive hemoccult; 3, blood traces in stool visible; 4, gross rectal bleeding).
Small intestine and colon were extracted and, after removing fecal content, weighted and length measured. The desired small intestine segments (duodenum, jejunum, ileum) and colon segments (ascending, transverse and descending colon) were cut out and fixed directly in 10% neutral buffered formalin (NBF) overnight. Tissues were then transferred to 70% ethanol before paraffin embedding. Paraffin tissue blocks were then sectioned to […] thickness and stained with hematoxylin and eosin (H&E) for histology analysis. Pathology reading was performed by an independent pathologist.
[…] Groups of mice were either untreated, treated with an isotype control antibody (anti-GFP), or treated with the indicated engineered Wnt agonist once on day 4 or twice on day 4 and 7. […]
The 123 mice total were grouped: (Day3=13, day4=13, day5=26, day6=24, day7=26, day10=21), with 91 used for histology endpoints, and 21 for scRNA-seq (group eliminated because of machinery). Daily food intake, BW, fecal score, and occult blood were measured. […]
For the molecule B8, the “repair of damaged colon epithelium / colon histology” value was “less significant as compared to the effect of R2M3-26”.

The next data set deals with colon tissue markers (ZO-1, Ki67, Axin2, Cdkn3, S100A9, CD45). The experiment in a line: RNA in situ hybridization and immunohistochemistry/immunofluorescence of colon tissue, DSS model. The data set is classed as in vivo, mouse. To be noted: day 10 of the DSS model. From the text: Expression of mRNA was detected by RNAscope in situ hybridization (ACD Bio). RNAscope probes used are listed below. For colorimetric visualization, standard RNAscope® 2.5 HD Assay-Red protocol (www.acdbio.com) was followed, and images were acquired on a Leica DMi8 microscope equipped with a DFC7000T color camera. For fluorescent RNAscope in situ hybridization, standard RNAscope Multiplex Fluorescent Reagent Kit v2 Assay protocol was followed (ACD Bio Document #323100-USM) and coupled with the TSA Plus Cyanine 3 and 5 Systems. Fluorescent images were acquired with a Leica Thunder imaging system.
In brief, five-micron thick formalin fixed paraffin embedded tissue sections on slides were deparaffinized followed by citrate buffer (pH 6) antigen retrieval in a steamer. Slides were then washed thoroughly in tap water followed by 1× wash in PBST. Subsequently, tissue sections were blocked with serum free protein block (Agilent, X090930-2) for one hour at room temperature followed by incubation in primary antibodies. After primary antibody incubation, tissue sections were washed in 0.1% TX-100 in PBS (PBST) at least three times followed by incubation in secondary antibody. Afterwards, tissue sections were washed with PBST, and coverslips were mounted with Vectashield Vibrance antifade mounting medium with DAPI (Vector Laboratories, H-1800).
Consider B8, for which the “Ki67 expression in duodenum and colon” value is “expansion of Ki67 expression”.

For the origin of these results see patent US20240150473A1, “MODULATION OF WNT SIGNALING IN GASTROINTESTINAL DISORDERS” (Surrozen Operating, Inc., priority 2021, published 2024).
